Data: article PMC10673952, “Stochastic chain termination in bacterial pilus assembly” (Nature Communications, 2023)

T1: FimI-FimAtHis (the two subunits of the ternary FimCHisIA complex) (E. coli W3110 | E. coli, UniProt P39264 20-179; P04128 37-182)
T1 construct: also called FimI-FimA part of FimCHisIA
T1 sequence (looked up) 1: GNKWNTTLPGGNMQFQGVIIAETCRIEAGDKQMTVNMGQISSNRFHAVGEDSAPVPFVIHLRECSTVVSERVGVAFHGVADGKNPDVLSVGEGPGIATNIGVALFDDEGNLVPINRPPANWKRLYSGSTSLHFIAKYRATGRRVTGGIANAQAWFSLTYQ
T1 sequence (looked up) 2: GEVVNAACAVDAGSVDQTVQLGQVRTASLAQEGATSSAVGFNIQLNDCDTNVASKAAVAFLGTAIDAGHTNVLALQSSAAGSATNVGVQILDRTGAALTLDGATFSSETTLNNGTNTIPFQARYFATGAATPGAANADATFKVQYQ

T2: FimF-FimGt (the two subunits of the ternary FimCHisFG complex) (E. coli, UniProt P08189 21-176; P08190 24-167)
T2 chain 1: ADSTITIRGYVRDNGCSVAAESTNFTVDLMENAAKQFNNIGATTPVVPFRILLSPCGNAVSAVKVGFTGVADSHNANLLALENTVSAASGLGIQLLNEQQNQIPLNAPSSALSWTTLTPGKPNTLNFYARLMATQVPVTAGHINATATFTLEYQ
T2 chain 2: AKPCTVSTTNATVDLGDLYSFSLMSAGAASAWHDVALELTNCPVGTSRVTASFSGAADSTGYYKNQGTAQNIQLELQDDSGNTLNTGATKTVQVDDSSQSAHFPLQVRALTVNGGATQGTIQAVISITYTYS

T3: FimFt (E. coli)
T3 chain: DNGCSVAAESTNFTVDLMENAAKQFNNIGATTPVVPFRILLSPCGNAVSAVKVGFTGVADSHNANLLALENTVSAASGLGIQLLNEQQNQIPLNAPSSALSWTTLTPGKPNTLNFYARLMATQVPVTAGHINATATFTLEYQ

B1: FimAt (residues 18-159 of FimA) (domain or fragment, E. coli, UniProt P04128 41-182, looked up)
chain: NAACAVDAGSVDQTVQLGQVRTASLAQEGATSSAVGFNIQLNDCDTNVASKAAVAFLGTAIDAGHTNVLALQSSAAGSATNVGVQILDRTGAALTLDGATFSSETTLNNGTNTIPFQARYFATGAATPGAANADATFKVQYQ
B2: FimA (natural protein, E. coli, UniProt P04128 24-182, looked up)
chain: AATTVNGGTVHFKGEVVNAACAVDAGSVDQTVQLGQVRTASLAQEGATSSAVGFNIQLNDCDTNVASKAAVAFLGTAIDAGHTNVLALQSSAAGSATNVGVQILDRTGAALTLDGATFSSETTLNNGTNTIPFQARYFATGAATPGAANADATFKVQYQ
notes: also called main structural pilus subunit FimA; FimA wild-type
B3: FimI (natural protein, E. coli W3110, UniProt P39264 20-179, looked up)
chain: T1 sequence (looked up) 1
notes: also called assembly terminator subunit FimI
B4: FimAtHis (wild-type FimA missing residues 1-13 but with an N-terminal hexahistidine tag) (domain or fragment, E. coli, UniProt P04128 37-182, looked up)
chain: T1 sequence (looked up) 2
notes: also called FimAt (in the FimCHisIA structure)
B5: FimC (natural protein, E. coli, UniProt P31697 37-241, looked up)
chain: GVALGATRVIYPAGQKQEQLAVTNNDENSTYLIQSWVENADGVKDGRFIVTPPLFAMKGKKENTLRILDATNNQLPQDRESLFWMNVKAIPSMDKSKLTENTLQLAIISRIKLYYRPAKLALPPDQAAEKLRFRRSANSLTLINPTPYYLTVTELNAGTRVLENALVPPMGESTVKLPSDAGSNITYRTINDYGALTPKMTGVME
notes: also called periplasmic chaperone FimC; untagged FimC; source: in FimCF and FimCG co-expressed in the periplasm of E. coli HM125
B6: FimCHis (FimC with C-terminal hexahistidine tag) (natural protein, E. coli, UniProt P31697 37-241, looked up)
chain: B5 chain

Legend:
FimC = molecular target: B5; test: refolding of the subunit with the chaperone and co-purification (cation exchange chromatography, SEC); denatured, disulfide-intact subunit diluted into buffer with an excess of FimC or FimCHis; complex purified by cation exchange and (not for FimCHisI) Superdex 75; FimCA eluted as a 1:1 complex; identity by ESI-MS; conditions: both partners purified
FimA [1] = molecular target: B2; test: reconstitution by donor strand exchange and co-purification (cation exchange chromatography, SEC); 2 μM FimCA with 10 μM FimCAt at pH 7.0 and 37 °C overnight; FimCAA purified on Resource S and Superdex 75; identity by ESI-MS; conditions: both partners purified
[2] = molecular target: B6; test: crystal structure; conditions: both partners purified
FimI [3] = molecular target: B3; test: crystal structure; conditions: both partners purified
[4] = molecular target: B6; test: crystal structure; FimCHis-FimI-FimAtHis complex, 2.8 Å, space group P6(1), two complexes in the asymmetric unit, crystals at 293 K from 0.8 M sodium formate, 100 mM Tris/acetic acid pH 8.5, 16% PEG 4000; conditions: both partners purified
FimA [5] = molecular target: B2; test: chaperone exchange kinetics followed by analytical cation exchange chromatography; 4 μM complex incubated with a 9-fold molar excess (36 μM) of the differently tagged FimC (untagged FimC against FimCHis complexes, FimCHis against FimCA and FimCAA); 20 mM MES-NaOH pH 6.0, 37 °C; single-exponential fit; conditions: both partners purified
FimI [6] = molecular target: B3; test: cell-based or functional assay
FimA [7] = molecular target: B2; test: cell-based or functional assay
[8] = molecular target: T1, FimI-FimAtHis (the two subunits of the …); test: chaperone exchange kinetics followed by analytical cation exchange chromatography; 4 μM complex incubated with a 9-fold molar excess (36 μM) of the differently tagged FimC (untagged FimC against FimCHis complexes, FimCHis against FimCA and FimCAA); 20 mM MES-NaOH pH 6.0, 37 °C; single-exponential fit; conditions: both partners purified
FimI [9] = molecular target: B3; test: as above; conditions: both partners purified
[10] = molecular target: T2, FimF-FimGt (the two subunits of the …); test: as above; conditions: both partners purified
FimFt = molecular target: T3, FimFt; test: as above; conditions: both partners purified

B1
binding result (FimC): binds
binding result (FimA [1]): binds

B2
binding result (FimC): binds

B3
binding result (FimC): binds
binding result [2]: binds

B4
binding result (FimI [3]): binds
binding result [4]: binds

B5
dissociation half-life (FimA [5]): 26 ± 1 s
FimC-catalyzed folding of oxidized, unfolded FimI, rate constant by stopped-flow tryptophan fluorescence (pseudo-first-order fit, pH 8.0) (FimI [6]): 73000 M^−1 s^−1
FimC-catalyzed folding of oxidized, unfolded FimA, rate constant by stopped-flow tryptophan fluorescence (pseudo-first-order fit, pH 8.0) (FimA [7]): 43000 M^−1 s^−1

B6
dissociation half-life [8]: 3.85 ± 0.43 h
dissociation half-life (FimI [9]): 1.05 ± 0.095 min
dissociation half-life [10]: 1.41 ± 0.12 h
dissociation half-life (FimFt): 1.58 ± 0.14 h
